Biological target: C-terminal TAP-tagged PB1 (influenza A virus, strain not stated)
Experiment: pull-down

B1: DDX21, plasmid-expressed (pcDNA3 plasmid expressing DDX21) (natural protein)
chain: MPGKLRSDAGLESDTAMKKGETLRKQTEEKEKKEKPKSDKTEEIAEEEETVFPKAKQVKKKAEPSEVDMNSPKSKKAKKKEEPSQNDISPKTKSLRKKKEPIEKKVVSSKTKKVTKNEEPSEEEIDAPKPKKMKKEKEMNGETREKSPKLKNGFPHPEPDCNPSEAASEESNSEIEQEIPVEQKEGAFSNFPISEETIKLLKGRGVTFLFPIQAKTFHHVYSGKDLIAQARTGTGKTFSFAIPLIEKLHGELQDRKRGRAPQVLVLAPTRELANQVSKDFSDITKKLSVACFYGGTPYGGQFERMRNGIDILVGTPGRIKDHIQNGKLDLTKLKHVVLDEVDQMLDMGFADQVEEILSVAYKKDSEDNPQTLLFSATCPHWVFNVAKKYMKSTYEQVDLIGKKTQKTAITVEHLAIKCHWTQRAAVIGDVIRVYSGHQGRTIIFCETKKEAQELSQNSAIKQDAQSLHGDIPQKQREITLKGFRNGSFGVLVATNVAARGLDIPEVDLVIQSSPPKDVESYIHRSGRTGRAGRTGVCICFYQHKEEYQLVQVEQKAGIKFKRIGVPSATEIIKASSKDAIRLLDSVPPTAISHFKQSAEKLIEEKGAVEALAAALAHISGATSVDQRSLINSNVGFVTMILQCSIEMPNISYAWKELKEQLGEEIDSKVKGMVFLKGKLGVCFDVPTASVTEIQEKWHDSRRWQLSVATEQPELEGPREGYGGFRGQREGSRGFRGQRDGNRRFRGQREGSRGPRGQRSGGGNKSNRSQNKGQKRSFSKAFGQ
  percent reduction of TAP-selected PA by DDX21 (1 μg plasmid): 75%
  percent reduction of TAP-selected PB2 by DDX21 (1 μg plasmid): 65%

Source: article PMC4039189
